Results reported in the Immune Epitope Database (IEDB).

Assays:
Settings in all cases: source organism: Rickettsia akari str. Hartford
[1] = target: HLA-B*58:01; test: IEDB peptide-MHC binding, purified MHC/competitive/fluorescence; filed as Kd, often an IC50 or EC50 that approximates it; ≥ and ≤ were set here for values at or beyond the usual limits of such assays
[2] = target: HLA-A*68:02; test: as above
[3] = target: HLA-B*27:05; test: as above
[4] = target: HLA-A*02:12; test: as above
[5] = target: HLA-A*30:02; test: as above
[6] = target: HLA-B*39:01; test: as above
[7] = target: HLA-A*11:01; test: as above
[8] = target: HLA-B*53:01; test: as above
[9] = target: HLA-B*40:01; test: as above
[10] = target: HLA-C*15:02; test: IEDB peptide-MHC binding, purified MHC/direct/fluorescence; filed as Kd, often an IC50 or EC50 that approximates it; ≥ and ≤ were set here for values at or beyond the usual limits of such assays

Measured: Kd

FTARIIIFS
0.0276 µM: [2]
≥ 20 µM: [4] | [6] | [10]
≥ 5 µM: [1] | [3] | [5] | [7] | [8] | [9]
